US20140219913A1

Molecular target: TNF-alpha
Test: cell-based or functional assay

N-terminal L929 Assay (EC50, pM): 1.5 pM
Substance: Etanercept (Fc fusion)
